Experimental data from patent US20250034594A1, “RNA-GUIDED GENOME RECOMBINEERING AT KILOBASE SCALE” (THE BOARD OF TRUSTEES OF THE LELAND STANFORD JUNIOR …, priority 2021, published 2025).

B1: SSAP_146: SEQ ID NO: 315; Mobilisporobacter senegalensis (protein, listed as Mobilisporobacter senegalensis)
chain: KDIKSALEKKVDKQDVKLTKSMSITDMIKALEPEIKKALPSVITPERFTRMALSAVNNTPKLAECSQMSFLAALMNAAQLGLEPNTSLGQAYLIPYQNKGKLECQFQLGFKGMIDLVYRNEKVQTIQAHCVYEEDYFEYELGLDSKLAHKPALANRGKMILVYAFFKLENGGFGFEVMSKEDIDIHALKYSKGYSSQYSPWKSNYEDMAKKTVIKKVLKYAPLKIDFQRAISVDETVKAEISIDMSEVQNEEIIDGQCTDVGEIEEK
B2: SSAP_33: SEQ ID NO: 202 (protein)
chain: TTNQVVTHKNFFNAPNVQKSFDDVWKGAGVQFATSILSVIQGNASLKSASNESIMTSAMKAAVLNLPIEPSLGRAYLVPYKGQVQFQLGYKGLIELAQRSGKYKSINAGPVYKSQFVSYDPLFEELTLDFTQPQDEVIGYFASFSLLNGFRKLTYWTKAEVEAHGKKFSKTFGNGPWKTDFDAMARKTVLKHILSIYGPLSVEMQTGMQNDESENDNATRDIKTAEPVNADQQLLEDLMNVDTETGEILEEVSELKDNGELDLKYEDPNAR
B3: SSAP_241: SEQ ID NO: 410; Antribacter gilvus (protein, listed as Antribacter gilvus)
chain: SADVVIRQHATELTSVLPSHLAEKGDGWLNAAVAAVRKDRNLWNAANSDPGAVMNALAEAARLGLQPGSKEYYLTVRGGKVLGIVGYQGEIELMYRAGAVSSVIVEPVFERDGFEYTPGVDDRPKHRIDWDADDRGPIRLAYAYAVMKDGAVSKVVVVNKTRIRRAKDASATAGKSHSPWTSDEVAMWMKTAAHDLAKWVPTSAEYIREQLRAVKEVEAEPARASDPRPEPVHIVEAQILDEDPFPNAPEDGAA
B4: SSAP_269: SEQ ID NO: 438; Candidatus Parcubacteria bacterium (protein)
chain: TEYKRPQQPEQTKMLSAKLNQAGAPNKVSSFDVQLRDWFKKHSRKMQTLAGSKEEANKIITSLIFVAQRNPKLMTCTMESIGECLMQSAQLKLYPGPLQECAYVPFGNRATFMPQYQGLCKLAYNSGVVRSIATEVVYANDLFEFELGTNAYLRHVPTLSDNRGERIAAWCVVKTTHGEVIIVKPISFIEGIRKRSPAGNKKDSPWNTSDDDYDAMARKTVLKQALKTIPKSSDLAAAIQVDNAVESGSVDNVVTHIEPVTDPTPEETKE
modifications: Candidatus Parcubacteria bacterium
B5: SSAP_118: SEQ ID NO: 287; Kribbella albertanoniae (protein, listed as Kribbella albertanoniae)
chain: ATADSVREELARSKEVERTQPKASNADNVIGLINRSLPEIAKALPGHVKPERIARIATTAVRVTPKLADCTQASFLGALLTAAQLGLEPNTPTGEAYLLPFGRNVQLIIGYRGYIKLANQSGQVRNIMAMTVYENDHFDYKYGSNPFLEHTPTLGQDPGPVKCWYACATFTNGGTNFVVLDKFKVEGYRARARSKDDGPWVTDYDAMARKTCIRRLAPYLPMSVELAQAMQVDEEVTAFTPGVSDPEVLATLAGVDTGTGEVQQ
B6: SSAP_177: SEQ ID NO: 346; Geomicrobium sp. JCM 19055 (protein, listed as Geomicrobium sp.)
chain: GYKGMIDLARRSGHIKSIYAHTVHANDEFEYELGLEPKLVHKPATGDRGNMEYAYAVAHFVDGGYQFEVFSHHDIEQVKKRSKAGNFGPWKTDYEEMAKKTVVRRMFKYLPISIEIQQHASQDETVRRDITEEAEKVDNIIDLPNYEDPNNIDVPDEEQDEQKDEKQKQQGSAEEIALDFK
B7: SSAP_83: SEQ ID NO: 252 (protein)
chain: TLQAVCPTQDKAVESQLDQTKFELIKRTICKGTTDDEFQLFIHACKRTGLDPFMRQIFAVKRWDSAERREVMTIQTGIDGYRLIADRTGRYAPGRDAEFGYDAHGGLRWAKAYVKKMTPDGHWHEISATAFWTEYVQTTKDGRPTVFWMKKGHVMLSKCAEALALRKTFPAELSGIYTQEEMAQTMSLPDTKGDSQTIGSDKAYEIERSIDNDPEFKTQLLTRLQRAFGCKSFSDLPQDQFKNVKKVIENHQIKEKIA
B8: SSAP_303: SEQ ID NO: 472; Paenibacillus sp. BK033 (protein, listed as Paenibacillus sp.)
chain: AANTQLITIHNNLEKLIEAKKDAMPQGFNKTRFIQNCMTVLQDTYGIEKCEPTTVARTLLKGAFLGLDFFNKECYAIPYGASMNFQTDYKGERKLAKKYSVRKVKDIYAKLVRAGDVFEENITDGQQTIQFAPVPFNNGDIVGAFAVVLFHDGGMLYETMSIAEMEHIKENYSKKSKDTGKFSKAWEVSTGEMYKKTVLRRLCKNIELDFDTIEQARAFEDAADVDFNKKTAPQQTSPLNVVEAEYEVVNDGSATEAQSE
B9: SSAP_124: SEQ ID NO: 293; Clostridium sp. AM58-1XD (protein, listed as Clostridium sp.)
chain: SVDVKNELEKRAAGTVNPAVKLTKNMTIVDMVRALEPEIKRALPTILTPERFMRMALSAINNTPELADCTPMSFIAALMNAAQLGMEPNTPLGQAYLIPYKNKGTLECQFQIGYKGLIDLAYRTGLIQVIQAQTVREFDSFEYQYGLDSRLTHRPGDGERGEITYIYGLFKLTNGGYGFEVSNKADMDAFAEKYSKSFGSRFSPWKENYEDMAKKTVIKRALKYAPVSSDFQKALSMDETIKSELSIDMSEIRNECQVEASGQEGAA

Key:
Type in all cases: cell-based
gene editing with Cas9 = assay: Screen of 322 new SSAP proteins, gene editing activity with Cas9 (Table 5); design: Cas9 with SSAP activity: scale not given here
Procedure, shortened: (§1)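 Editing screen of 322 newly identified, synthesized SSAPs, each co-used with Cas9 and with dCas9.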

gene editing with dCas9 = assay: Screen of 322 new SSAP proteins, gene editing activity with dCas9 (Table 5); design: dCas9 with SSAP activity: scale not given here
Procedure, shortened: as §1

[1] = system: gene editing with Cas9 and dCas9; assay: Screen of 322 new SSAP proteins, activity across all experiments (Cas9 and dCas9, Table 5); design: scale not given here
Procedure, shortened: as §1

Molecule | Cas9 with SSAP activity (gene editing with Cas9) | Cas9 with SSAP activity (normalized) (gene editing with Cas9) | dCas9 with SSAP activity (gene editing with dCas9) | dCas9 with SSAP activity (normalized) (gene editing with dCas9) | Activity across all experiments [1]
B1 | −0.626 | −2.428 | −9.454 | −1.210 | −5.040
B2 | 1.307 | 0.578 | −8.362 | −1.043 | −3.528
B3 | −0.640 | −3.561 | −9.530 | −2.720 | −5.085
B4 | −7.746 | −2.190 | −9.789 | – | −8.768
B5 | −9.467 | – | −9.467 | – | −9.467
B6 | −0.293 | −0.508 | −0.179 | −0.069 | −0.236
B7 | −0.905 | −1.189 | −9.459 | −1.391 | −5.182
B8 | 1.686 | 2.052 | −9.053 | – | −3.683
B9 | −5.698 | −1.064 | −8.790 | – | −7.244
